Test results as given in US20240239875A1 (published 2024).
Where two headings read alike, the source gives them in different places.

Columns and labels:
Experiment in all cases: ELISA
[1] = molecular target: SARS-CoV-2 receptor binding domain (UniProt P0DTC2 319-541)
[2] = molecular target: T1, SARS-CoV-2 prefusion stabilized trimer protein (WIV02 isolate spike protein) (UniProt P0DTC2 14-1213)
SARS-CoV-1 spike protein = SARS-CoV-1 spike protein (SARS-CoV-1, UniProt P59594 14-1195)
SARS-CoV-2 S2 domain = SARS-CoV-2 S2 domain (UniProt P0DTC2 686-1213)
[3] = molecular target: T1, SARS-CoV-2 prefusion stabilized trimer …; remark: listed apart in the source
MERS spike protein = molecular target: T2, MERS spike protein (MERS-CoV, UniProt K9N5Q8 18-1296)
T2 chain: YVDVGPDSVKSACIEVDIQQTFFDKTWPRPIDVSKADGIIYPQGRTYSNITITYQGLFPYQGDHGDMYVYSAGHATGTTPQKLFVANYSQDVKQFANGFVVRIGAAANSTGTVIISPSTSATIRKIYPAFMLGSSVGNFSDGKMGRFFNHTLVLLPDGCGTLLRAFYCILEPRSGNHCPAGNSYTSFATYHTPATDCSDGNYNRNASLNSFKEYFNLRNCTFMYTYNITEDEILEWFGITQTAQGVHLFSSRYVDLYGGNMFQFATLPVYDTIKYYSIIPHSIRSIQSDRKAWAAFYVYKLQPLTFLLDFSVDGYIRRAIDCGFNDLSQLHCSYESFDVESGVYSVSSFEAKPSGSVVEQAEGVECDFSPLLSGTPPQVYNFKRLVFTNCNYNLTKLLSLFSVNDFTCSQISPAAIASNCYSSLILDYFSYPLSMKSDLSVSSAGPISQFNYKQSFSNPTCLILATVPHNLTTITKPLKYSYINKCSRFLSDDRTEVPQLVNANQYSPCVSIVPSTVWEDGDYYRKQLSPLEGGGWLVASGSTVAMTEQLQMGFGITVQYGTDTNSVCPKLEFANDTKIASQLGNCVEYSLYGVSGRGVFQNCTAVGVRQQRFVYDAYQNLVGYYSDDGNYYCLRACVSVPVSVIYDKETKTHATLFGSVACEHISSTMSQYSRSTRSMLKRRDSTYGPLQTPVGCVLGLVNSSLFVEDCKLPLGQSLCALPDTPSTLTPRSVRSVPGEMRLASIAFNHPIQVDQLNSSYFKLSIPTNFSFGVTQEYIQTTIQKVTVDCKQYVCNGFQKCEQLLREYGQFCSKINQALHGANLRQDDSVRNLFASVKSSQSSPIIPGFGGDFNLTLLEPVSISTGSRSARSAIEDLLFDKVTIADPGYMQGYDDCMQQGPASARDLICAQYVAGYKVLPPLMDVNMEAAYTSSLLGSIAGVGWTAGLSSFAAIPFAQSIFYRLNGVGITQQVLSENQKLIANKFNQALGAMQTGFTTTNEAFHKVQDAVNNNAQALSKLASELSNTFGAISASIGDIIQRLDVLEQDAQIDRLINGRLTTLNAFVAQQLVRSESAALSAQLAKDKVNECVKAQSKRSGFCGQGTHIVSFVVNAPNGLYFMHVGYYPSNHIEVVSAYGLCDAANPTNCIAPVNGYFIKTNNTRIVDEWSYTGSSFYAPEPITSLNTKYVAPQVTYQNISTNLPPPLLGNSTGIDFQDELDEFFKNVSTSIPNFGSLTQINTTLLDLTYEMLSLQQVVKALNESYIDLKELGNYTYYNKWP

B1: 2-P2-A (antibody, V domains shown)
VH: EVQLQQSGAELVRPGSSVKMSCKTSGYTFTSYGINWVKQRPGQGLEWIGYIYIGNGYTEYNEKFKGKATLTSDTSSSTAYMQLSSLTSEDSAIYFCARGGVDYWGQGTTLTVSS
VL: DVLMTQTPLSLPVSLGDQASISCRSSQSIVHSNGNTYLEWYLQKPGQSPKLLIYKVSNRFSGVPDRFSGSGSGTDFTLKISRVEAEDLGVYYCFQGSHVPYTFGGGTKLEIK
With B1 the EC50 [1] was 89.5 nM, the EC50 [2] was 0.13 nM and the EC50 (SARS-CoV-1 spike protein) was 0.19 nM. The EC50 (SARS-CoV-2 S2 domain) was 0.07 nM and the EC50 [3] was 0.12 nM.

B2: 9-P9-A (antibody, V domains shown)
VH: DVKLVESGEGLVKPGGSLKLSCAASGFSFSNFGMSWVRQTPEKRLEWVAYISSGGDYIYYADTVKGRFTISRDNARNTLYLQMSSLKSEDTAIYYCTRGYFDYWGQGTTLTVSS
VL: DVLMTQTPLSLPVSLGDQASISCRSSQSIVHSNGNTYLEWYLQKPGQSPKLLIYTVSNRFSGVPDRFSGSGSGTDFTLKISRVEAEDLGVYYCFQGSHVPYTFGGGTKLEMR
Work on B2 yielded an EC50 [2] of 0.05 nM, an EC50 (SARS-CoV-1 spike protein) of 0.06 nM and an EC50 (SARS-CoV-2 S2 domain) of 0.04 nM. For the same binder, the EC50 [3] was 0.05 nM.

B3: 4-K13-A (antibody, V domains shown)
VH: QAYLQQSGAELVRPGASVKMSCKASGYTFTSYTVHWVKQTPRQGLEWIGAIYPGNVDTSYNQNFKGKATLTVDKSSSTAYMQLSSLTSEDSAVYFCARDGYYAMDYWGQGTSVTVSS
VL: not shown
B3 gave an EC50 [1] of 0.15 nM, an EC50 [2] of 0.14 nM and an EC50 (SARS-CoV-2 S2 domain) of 87 nM.

B4: 9-L13-A (antibody, V domains shown)
VH: QVQLKESGPGLVAPSQSLSITCTVSGFSLTSYAISWVRQPPGKGLEWLGLIWTGGGTNYNSALKSRLSISKDNSKSQIFLKMNSLQTDDTARYYCARGPPLIYYGDLYYFDYWGQGTTLTVSS
VL: DIQMTQSPSSLSASLGGKVTITCKASQDINKYIAWYQHKPGKGPRLLIHYTSTLQPGIPSRFSGSGSGRDYSFSISNLEPEDIATYYCLQYDNLWTFGGGTKLEIK
B4 showed an EC50 [1] of 26.9 nM, an EC50 [2] of 8.45 nM and an EC50 (SARS-CoV-1 spike protein) of 6.31 nM. It also gave an EC50 [3] of 8.18 nM.

B5: 6-L8-A (antibody, V domains shown)
VH: EVQLQQSVAELVRPGASVKLSCTPSGFNIKNTYMHWMKQRPEQGLEWIGRINPANDDTKYAPKFQDKATITADTSSNTAYLQLSSLTSEDTAIYYCVYDVRWYFDVWGTGTTVTVSS
VL: DVVMTQTPLSLPVSLGDQASISCRSSQGLVHSNGNTYLHWYLQKPGQSPKLLIYKVSNRFSGVPDRFSGSGSGTDFTLKISRVEAEDLGVYFCSQSTHVPPTFGAGTKLELK
B5 gave an EC50 [2] of 7.46 nM, an EC50 (SARS-CoV-1 spike protein) of 43.5 nM and an EC50 [3] of 6.8 nM.

B6: 8-N24-A (antibody, V domains shown)
VH: QVQLQQPGAELVKPGASVKVSCKASGYTFTSYWMHWVKQRPGQGLEWIGRIHPSDSDTNYYQKFKGKATLSVDKSSSTAYMQLSSLTSEDSAVYYCAIPLYSYDNSGGYYPMDYWGQGTSVTVSS
VL: DIVMTQSQKFMSTSVGDRVTITCKASQNVRTAVAWYQQKPGQSPKKLIYLASNRHTGVPDRFTGSGSGTDFTLAISNVQSEDLADYFCLQHWNYPFTFGSGTRLEIK
In the case of B6, the EC50 (SARS-CoV-1 spike protein) is reported as 59 nM and the EC50 (SARS-CoV-2 S2 domain) is reported as 4.43 nM.

B7: 3-E13-A (antibody, V domains shown)
VH: EVQLQQSGPELVKPGASVKMSCKASGYTFTDYNIHWVKQSHGKSLEWIGYINPNNGGTDYNQKFQGKATLTVNKSSSTAYMELRSLTSEDFAVYYCARGGFYGNYGAYYGMDFWGQGTSVTVSS
VL: DIQMTQSPASLSASVGETVTITCRTSENIYSHLAWYQQTQGKSPQLLVYNAKTLAEGVPSRFSGSGSGTHFSLKINSLQPEDFGSYYCQHHYGIPPEFGGGTKLEIK
In the case of B7, the EC50 [2] is reported as 0.08 nM, the EC50 (SARS-CoV-1 spike protein) is reported as 0.16 nM and the EC50 (SARS-CoV-2 S2 domain) is reported as 0.05 nM. It also gave an EC50 [3] of 0.08 nM.

B8: 6-C19-A (antibody, V domains shown)
VH: EVQLQQSGPELVKPGASVKMSCKASGYTFTDYNIHWVKQSHGKSLEWIGYINPNNGGTDYNQKFQGKATLTVDKSSSTAYMELRSLTSEDSAVYYCARGGFYGNYGSYYGMDFWGQGTSVTVSS
VL: DIQMTQSPASLSASVGETVTITCRTSENIYSHLAWYQQTQGKSPHLLVYNAKTLAEGVPSRFSGSGSGTQFSLKINSLQPEDFGSYFCQHHYGIPPEFGGGTKLEIK
With B8 the EC50 [2] was 0.49 nM, the EC50 (SARS-CoV-1 spike protein) was 1.98 nM and the EC50 (SARS-CoV-2 S2 domain) was 0.39 nM. The EC50 [3] was 0.48 nM.

B9: 2-J9-A (antibody, V domains shown)
VH: EVQLQQSGPELVKPGASVKMSCKASGYTFTDYNIHWVKQSHGKSLEWIGYINPNNGGTDYNQKFQGKATLTVNKSSSTAYMELRSLTSEDSAVYYCARGGFYGNYGAYYGMDFWGQGTSVTVSS
VL: DIQMTQSPASLSASVGETVTITCRTSENIYSHLAWYQQTQGKSPQLLVYNTKTLAEGVPSRFTGSGSGTQFSLKINSLQPEDFGSYYCQHHYGIPPEFGGGTKLEIK
B9 gave an EC50 [2] of 0.08 nM, an EC50 (SARS-CoV-1 spike protein) of 0.17 nM and an EC50 (MERS spike protein) of 1.83 nM. For the same binder, the EC50 (SARS-CoV-2 S2 domain) was 0.05 nM and the EC50 [3] was 0.11 nM.

B10: 4-C3-A (antibody, V domains shown)
VH: EVQLQQSGPELVKPGASVKISCKASGYSFTGYYMHWVKQSHGNILDWIGYIYPYNGVSSYNQKFKGKATLTVDKSSSTAYMELRSLTSEASAVYYCARAYGSSYDYYYGLDYWGQGTSVTVSS
VL: DIVLTQSPASLAVSLGQRATISCKASQSVDYDGAGYMNWYQQKPGQPPKLLISSASNLQSGIPARFSGSGSGTDFTLNIHPVEEEDAATYYCQQSNDDPYTFGGGTKLEIK
In the case of B10, the EC50 [2] is reported as 0.54 nM, the EC50 (SARS-CoV-2 S2 domain) is reported as 81.1 nM and the EC50 [3] is reported as 0.08 nM.
